Legend:
Assay in all cases: cell-based or functional assay
[1] = biological target: VI423 envelope protein (HIV-1)
[2] = biological target: 93BR029 envelope protein (HIV-1)
[3] = biological target: CA1 envelope protein (HIV-1)
[4] = biological target: NYU1423 envelope protein (HIV-1)
[5] = biological target: MACS#4 envelope protein (HIV-1)
[6] = biological target: LY109 envelope protein (HIV-1)
[7] = biological target: VI1399 envelope protein (HIV-1)
[8] = biological target: R2 envelope protein (HIV-1)
[9] = biological target: VI1249 envelope protein (HIV-1)
[10] = biological target: 24/00/4 envelope protein (HIV-1)
[11] = biological target: GXE-14 envelope protein (HIV-1)
[12] = biological target: VI1273 envelope protein (HIV-1)
[13] = biological target: 24/008 envelope protein (HIV-1)
[14] = biological target: 14/00/4 envelope protein (HIV-1)
[15] = biological target: VI843 envelope protein (HIV-1)
[16] = biological target: VI1793 envelope protein (HIV-1)
[17] = biological target: NYU1026 envelope protein (HIV-1)
[18] = biological target: NYU1026 (T662) mutant Env (HIV-1)
[19] = biological target: LY109(N662T) mutant Env (HIV-1)
[20] = biological target: NYU1423 (T662) mutant Env (HIV-1)
[21] = biological target: 14/00/4 (A662) mutant Env (HIV-1)

Substance	neutralization, 50% inhibitory concentration [1] [µg/mL]	neutralization, 50% inhibitory concentration [2] [µg/mL]	neutralization, 50% inhibitory concentration [3] [µg/mL]	neutralization, 50% inhibitory concentration [4] [µg/mL]	neutralization, 50% inhibitory concentration [5] [µg/mL]	neutralization, 50% inhibitory concentration [6] [µg/mL]	neutralization, 50% inhibitory concentration [7] [µg/mL]	neutralization, 50% inhibitory concentration [8] [µg/mL]	neutralization, 50% inhibitory concentration [9] [µg/mL]	neutralization, 50% inhibitory concentration [10] [µg/mL]	neutralization, 50% inhibitory concentration [11] [µg/mL]	neutralization, 50% inhibitory concentration [12] [µg/mL]	neutralization, 50% inhibitory concentration [13] [µg/mL]	neutralization, 50% inhibitory concentration [14] [µg/mL]	neutralization, 50% inhibitory concentration [15] [µg/mL]	neutralization, 50% inhibitory concentration [16] [µg/mL]	other results
2G12 (antibody)	25	18.8	> 50	25	4.69	> 25	50	> 50	> 50	> 50	> 50	9.38	0.78	> 50	6.25	6.25	
Mab 2F5 (antibody)	1.96	0.39	> 12.5	25	3.13	6.64	1.56	0.78	0.98	1.17	3.13	3.13	> 50	< 0.39	> 50	1.17	neutralization ID50 [17]: 3.13 µg/mL; Mab ID50 (neutralization) [4]: 25 µg/mL; neutralization ID50 [4]: 17.7 µg/mL; Mab ID50 (neutralization) [6]: 3.1 µg/mL; neutralization ID50 [18]: 0.31 µg/mL; Mab ID50 (neutralization) [19]: 0.39 µg/mL; Mab ID50 (neutralization) [20]: 12.5 µg/mL; neutralization ID50 [20]: 10.4 µg/mL; neutralization ID50 [21]: 6.25 µg/mL; neutralization ID50 [14]: 0.45 µg/mL
Mab 4E10 (antibody)	6.25	0.39	12.5	25	7.82	18.8	3.13	3.13	0.98	3.91	13.3	6.25	25	1.96	12.5	3.13	neutralization ID50 [17]: 10.4 µg/mL; Mab ID50 (neutralization) [4]: 25 µg/mL; Mab ID50 (neutralization) [6]: 12.5 µg/mL; neutralization ID50 [18]: 0.78 µg/mL; Mab ID50 (neutralization) [19]: 0.78 µg/mL; Mab ID50 (neutralization) [20]: 12.5 µg/mL; neutralization ID50 [21]: 9.34 µg/mL; neutralization ID50 [14]: 0.9 µg/mL
X5 (antibody)	< 6.25	< 25	> 25	25	25	> 25	< 25	< 6.25	25	> 25	> 25	> 25	> 25	> 25	> 25	> 25	
Z13 (antibody)	> 25	> 25	> 25		> 25	> 25	> 25	> 25	> 25	> 25	> 25	> 25	> 25	> 25	> 25	> 25	
huMab IgG1 b12 (antibody)	31.2	> 100	> 100	> 100	1.56	100	0.78	25	1.56	> 100	25	9.38	> 100	> 100	50	> 100	
two-domain soluble CD4 (from UniProt P01730 26-208) (receptor)	50	< 0.39	< 0.39	25	1.56	> 25	6.25	0.78	3.13	> 50	9.34	> 50	4.69	0.59	> 50	25	

— US20090232830A1
